Experimental data published in patent US12303551B2, “Cellular immunotherapy compositions and uses thereof” (CERO THERPEUTICS HOLDINGS, INC., priority 2018, dated 2025).

B1: CER112: Chimeric engulfment receptor: Tim4 binding, Tim4 transmembrane, TRAF6 and NFAM1 signaling; SEQ ID NO: 148 (protein)
chain: MSKGLLLLWLVTELWWLYLTPAASEDTIIGFLGQPVTLPCHYLSWSQSRNSMCWGKGSCPNSKCNAELLRTDGTRIISRKSTKYTLLGKVQFGEVSLTISNTNRGDSGVYCCRIEVPGWFNDVKKNVRLELRRATTTKKPTTTTRPTTTPYVTTTTPELLPTTVMTTSVLPTTTPPQTLATTAFSTAVTTCPSTTPGSFSQETTKGSAFTTESETLPASNHSQRSMMTISTDIAVLRPTGSNPGILPSTSQLTTQKTTLTTSESLQKTTKSHQINSRQTILIIACCVGFVLMVLLFLAFLMSLLNCENSCGSSQSESDCCVAMASSCSAVTKDDSVGGTASTGNLSSSFMEEIQGYDVEFDPPLESKYECPICLMALREAVQTPCGHRFCKACIIKSIRDAGHKCPVDNEILLENQLFPDNFAKREILSLMVKCPNEGCLHKMELRHLEDHQAHCEFALMDCPQCQRPFQKFHINIHILKDCPRRQVSCDNCAASMAFEDKEIHDQNCPLANVICEYCNTILIREQMPNHYDLDCPTAPIPCTFSTFGCHEKMQRNHLARHLQENTQSHMRMLALWNKKRMRGPGKDPTRKCPDPRSASSPKQHPSESVYTALQRRETEVYACIENEDGSSPTAKQSPLSQERPHRFEDDGELNLVYENL
modifications: CER112, amino acids 1-22 are signal peptide
B2: CER113: Chimeric engulfment receptor: Tim4 binding, Tim4 transmembrane, TRAF6 and Baff-R signaling; SEQ ID NO: 149 (protein)
chain: MSKGLLLLWLVTELWWLYLTPAASEDTIIGFLGQPVTLPCHYLSWSQSRNSMCWGKGSCPNSKCNAELLRTDGTRIISRKSTKYTLLGKVQFGEVSLTISNTNRGDSGVYCCRIEVPGWFNDVKKNVRLELRRATTTKKPTTTTRPTTTPYVTTTTPELLPTTVMTTSVLPTTTPPQTLATTAFSTAVTTCPSTTPGSFSQETTKGSAFTTESETLPASNHSQRSMMTISTDIAVLRPTGSNPGILPSTSQLTTQKTTLTTSESLQKTTKSHQINSRQTILIIACCVGFVLMVLLFLAFLMSLLNCENSCGSSQSESDCCVAMASSCSAVTKDDSVGGTASTGNLSSSFMEEIQGYDVEFDPPLESKYECPICLMALREAVQTPCGHRFCKACIIKSIRDAGHKCPVDNEILLENQLFPDNFAKREILSLMVKCPNEGCLHKMELRHLEDHQAHCEFALMDCPQCQRPFQKFHINIHILKDCPRRQVSCDNCAASMAFEDKEIHDQNCPLANVICEYCNTILIREQMPNHYDLDCPTAPIPCTFSTFGCHEKMQRNHLARHLQENTQSHMRMLASWRRRQRRLRGASSAEAPDGDKDAPEPLDKVIILSPGISDATAPAWPPPGEDPGTTPPGHSVPVPATELGSTELVTTKTAGPEQQ
modifications: CER113, amino acids 1-22 are signal peptide
B3: CER114: Chimeric engulfment receptor: Tim4 binding, Tim4 transmembrane, TRAF6 and MERTK signaling; SEQ ID NO: 150 (protein)
chain: MSKGLLLLWLVTELWWLYLTPAASEDTIIGFLGQPVTLPCHYLSWSQSRNSMCWGKGSCPNSKCNAELLRTDGTRIISRKSTKYTLLGKVQFGEVSLTISNTNRGDSGVYCCRIEVPGWFNDVKKNVRLELRRATTTKKPTTTTRPTTTPYVTTTTPELLPTTVMTTSVLPTTTPPQTLATTAFSTAVTTCPSTTPGSFSQETTKGSAFTTESETLPASNHSQRSMMTISTDIAVLRPTGSNPGILPSTSQLTTQKTTLTTSESLQKTTKSHQINSRQTILIIACCVGFVLMVLLFLAFLMSLLNCENSCGSSQSESDCCVAMASSCSAVTKDDSVGGTASTGNLSSSFMEEIQGYDVEFDPPLESKYECPICLMALREAVQTPCGHRFCKACIIKSIRDAGHKCPVDNEILLENQLFPDNFAKREILSLMVKCPNEGCLHKMELRHLEDHQAHCEFALMDCPQCQRPFQKFHINIHILKDCPRRQVSCDNCAASMAFEDKEIHDQNCPLANVICEYCNTILIREQMPNHYDLDCPTAPIPCTFSTFGCHEKMQRNHLARHLQENTQSHMRMLAALRRRVQETKFGGAFSEEDSQLVVNYRAKKSFCRRAIELTLQSLGVSEELQNKLEDVVIDRNLLVLGKVLGEGEFGSVMEGNLKQEDGTSQKVAVKTMKLDNFSQREIEEFLSEAACMKDFNHPNVIRLLGVCIELSSQGIPKPMVILPFMKYGDLHTFLLYSRLNTGPKYIHLQTLLKFMMDIAQGMEYLSNRNFLHRDLAARNCMLRDDMTVCVADFGLSKKIYSGDYYRQGRIAKMPVKWIAIESLADRVYTSKSDVWAFGVTMWEITTRGMTPYPGVQNHEMYDYLLHGHRLKQPEDCLDELYDIMYSCWSADPLDRPTFSVLRLQLEKLSESLPDAQDKESIIYINTQLLESCEGIANGPSLTGLDMNIDPDSIIASCTPGAAVSVVTAEVHENNLREERYILNGGNEEWEDVSSTPFAAVTPEKDGVLPEDRLTKNGVSWSHHSTLPLGSPSPDELLFVDDSLEDSEVLM
modifications: CER114, amino acids 1-22 are signal peptide

What follows are molecules tested on SCC152 cells (assay: Elimination of GFP-expressing SCC152 target cells over time (quantification and time lapse imaging)). Details: 0 to 36 hrs, compared to the control.
Format: cell-based
In short: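 GFP-labelled SCC152 (HPV16+) target cells were co-cultured at 1:1:1 with CD8+ T cells carrying an HPV16 E7 TCR and with CD4+ T cells transduced with a chimeric CER or a control. Remaining target cells were counted by fluorescence imaging and automated software at 0, 12, 24, 36 h or 0, 24, 48 h.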

Molecule	elimination of SCC152 cells, time lapse imaging
B1	enhanced elimination of SCC152 cells
B2	enhanced elimination of SCC152 cells
B3	enhanced elimination of SCC152 cells

Same assay, conditions: by 36 hrs, 1:1:1 ratio (CD8:CD4:target cell), compared to control

Molecule	elimination of SCC152 cells (GFP quantification)
B1	nearly complete elimination
B2	nearly complete elimination
B3	nearly complete elimination

The molecules below were run on SCC152 target cells (assay: Phagocytosis of SCC152 by CD4+ T cell/CER, fluorescence microscopy with hybrid capture). Details: TRAF-domain CERs, 4 hours, 1:1:0.5 (CD8:CD4:target cell); versus CD4+ control + CD8+/E7 TCR.
Format: cell-based
Description: (§1) FIG. 28 is a bar graph representing quantification of CD4+ T cell-CER mediated phagocytosis of SCC152 target cells. Results calculated as ((number of phagocytic target events)/(total number of effectors))*100 from 3×3 40× images, 4 hours after initiation of co-culture assay. CD8+ T cells transduced with HPV16 E7 TCR and CD4+ T cells transduced with selected CERs (CER5, CER17, CER19, CER21, CER23, CER26, CER27, CER103b, CER104, CER105, CER106, or CER116) were co-cultured with SCC152 squamous head and neck carcinoma target cells at a 1:1:0.5 ratio for 4 hours and imaged.
as §1, with “29” for “28”, “(median area ratio” for “((number”, “of” for “of phagocytic”, “events in effector cells*% phagocytosis)” for “events)/(total number of effectors))*100”
(§2) FIG. 55 is a bar graph representing quantification of CD4+ T cell-CER mediated phagocytosis of SCC152 target cells. Percent phagocytosis was calculated as ((number of phagocytic target events)/(total number of effector cells))*100. These numbers were calculated from 3×3 images captured by Keyence BZ-X710 fluorescence microscope at 40× resolution, 4 hours after initiation of co-culture assay. CD8+ T cells transduced with HPV16 E7 TCR and CD4+ T cells transduced with a selected CER (CER29, CER30, CER110, CER112, CER113, CER114, CER116, or CER117) were co-cultured with SCC152 target cells at a 1:1:0.5 ratio (CD8:CD4:target cell) for 4 hours and imaged.
as §2, with “56” for “55”, “Adjusted phagocytic index” for “Percent phagocytosis”, “(median area ratio” for “((number”, “of” for “of phagocytic”, “events in” for “events)/(total number of”, “cells*% phagocytosis).” for “cells))*100.”
Phagocytic activity of CD4+ T cell/CER+CD8+ T cell/HPV16 E7 TCR combinations co-cultured with SCC152 cells was visualized and quantified using KEYENCE BZ-X710 fluorescence microscope, […] and hybrid capture software.

Molecule	engulfment of SCC152 target cells (percent phagocytosis, adjusted phagocytic index)
B1	enhanced engulfment
B2	enhanced engulfment
B3	enhanced engulfment
